Measured values: the supplement of paper PMC12455559
± gives the standard deviation of the averaged measurements.

Key:
[1] = melting temperature (DSF); higher = more thermostable
How it was run: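 Candidate enzymes were expressed in E. coli C41(DE3), purified on nickel beads and released by SUMO protease cleavage. For differential scanning fluorimetry, 45 μL enzyme (0 to 0.3 mg/mL) was mixed with 5 μL 5X Sypro Orange in sealed PCR plates on a Bio-Rad CFX96 instrument. Fluorescence was read from 25 °C in steps of 0.3 °C per cycle (ramp 0.3 °C/s) for 250 cycles. The read-out is melting temperature.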

[2] = purified protein yield per well (BCA); higher = higher soluble expression
How it was run: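 Purified protein yield per well is reported, as measured by the Pierce Rapid Gold BCA kit. The enzymes came from E. coli C41(DE3) autoinduction cultures of 2 mL with 100 µg/mL kanamycin, held at 37 °C for 2 h and 18 °C for 40 h, then lysed and purified on Ni-charged magnetic beads with SUMO protease release. The detection threshold is 25 ug (0.1 mg/mL), and lower values are under it.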

[3] = PET hydrolysis, aromatic products released after 48 h (umol product/mg enzyme); higher = more PET depolymerization activity
How it was run: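 The measure of PET hydrolysis activity is aromatic product released into the supernatant, given per mg enzyme. Nickel-purified, SUMO-cleaved enzyme without tag was added at 5 μg (50 μL) to 3.5 mg amorphous PET film or crystalline PET powder in 450 μL of citrate, phosphate or glycine buffer spanning pH 4.5 to 8.5. After 48 h at 40 or 60 °C in sealed plates without shaking, absorbance at 260 and 280 nm was taken against buffer blanks.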

[4] = substrate: cryPow, 40 °C, pH 5.5
[5] = substrate: cryPow, 40 °C, pH 6.5
[6] = substrate: cryPow, 40 °C, pH 7.5
[7] = substrate: cryPow, 40 °C, pH 8.5
[8] = substrate: cryPow, 60 °C, pH 5.5
[9] = substrate: cryPow, 60 °C, pH 6.5
[10] = substrate: cryPow, 60 °C, pH 7.5
[11] = substrate: cryPow, 60 °C, pH 8.5
[12] = substrate: aFilm, 40 °C, pH 4.5
[13] = substrate: aFilm, 40 °C, pH 5.5
[14] = substrate: aFilm, 40 °C, pH 6.5
[15] = substrate: aFilm, 40 °C, pH 7.5
[16] = substrate: aFilm, 60 °C, pH 4.5
[17] = substrate: aFilm, 60 °C, pH 5.5
[18] = substrate: aFilm, 60 °C, pH 6.5
[19] = substrate: aFilm, 60 °C, pH 7.5
[20] = substrate: cryPow, 40 °C, pH 4.5
[21] = substrate: cryPow, 60 °C, pH 4.5

| Sequence | melting temperature [1] [C] | purified protein yield per well [2] [µg] | PET hydrolysis [3, 4] | PET hydrolysis [3, 5] | PET hydrolysis [3, 6] | PET hydrolysis [3, 7] | PET hydrolysis [3, 8] | PET hydrolysis [3, 9] | PET hydrolysis [3, 10] | PET hydrolysis [3, 11] | PET hydrolysis [3, 12] | PET hydrolysis [3, 13] | PET hydrolysis [3, 14] | PET hydrolysis [3, 15] | PET hydrolysis [3, 16] | PET hydrolysis [3, 17] | PET hydrolysis [3, 18] | PET hydrolysis [3, 19] | PET hydrolysis [3, 20] | PET hydrolysis [3, 21] |
| --- | --- | --- | --- | --- | --- | --- | --- | --- | --- | --- | --- | --- | --- | --- | --- | --- | --- | --- | --- | --- |
| QTNPFQRGPAPTEATLEATRGPMATSQFTVSRPSGYRAGTVYYPTNAGGTVGGIVVVPGYTAYQSDINWWGPRLASWGFIVMTIDTNSTLDQPASRSRQQLAALDQLATLSRTSSSPIYNKLDTNRMGVMGWSMGGGGSLISTENRPSLKASIPFAPWNSTENFSSVTVPTLIIACQDDSIAPVYSHASPFYNSMTRNPKQFLEVRGEGHYCANSSNSDKDFLGKKGVAWMKRFMDNDTRFTTFACTNQESSLDVSDFRTARCS [DP032] | 44.5 | 38 | < 3 | < 3 | < 3 | < 3 |  |  |  |  |  |  |  |  |  |  |  |  |  |  |
| QTNPYQKGPAPTVANLEAARGSFAVSSTSISSLSATGFGGGSLHYPTAAGTYGLIAVAPPYLAQSSSIAWLGPRLASHGFVVVMIDVNSTLDFPESRSRQQLAAIDYAIAQNARRTSPIYGKVDTTRRGVTGHSMGGGASILTARNSPANIKGAFPLTPWSSDKNFSNLQVPTGYLACQDDTVAGNADHSLNFYNRMPASTPKGYYELRGETHFCPQSTTNNPVIGKYLVAWMKRFVDNDTRFSPFLSGALPNADLSSGRFSVLRTSGL [DP075] | 49.3 | 33 | < 3 | < 3 | < 3 | < 3 |  |  |  |  |  |  |  |  |  |  |  |  |  |  |
| QYQKGPDPTTSSLERAGSFATRTISVSSLAASGFGGGRIYYPTASGSYGVIAVSPGYTGTASTMYFWGERLSSHGFVVIVIETNTLLDQPGSRANQLMAALNYTVSQGNSRTSALYGKVDGNRRGVAGHSMGGGGTLIAAADNASLKAAVPMAPWNLSSLSFRGIRVPTMIFGCQSDAIAPVNTHAVPFYNAIPSSTKKGYVEMRLDDHFCVMNGGGHYETLGKLGISWFKRFIDEDTRYSKFLCGTEYNATVRSTEVSDSKNNCPY [DP039] | 47.8 | 57 | < 3 | 3 | 4 | 3 | < 3 | < 3 | < 3 | < 3 |  |  |  |  |  |  |  |  |  |  |
| QYQKGPDPTVAGLERDGTFAIRTTTVSRLSASGFGGGTIYYPTATGSYGVVAVSPGFTAYQSSISWIGSRLASHGFVVITIDTNTTSDQPDSRARQLKAALDKVVSLASSRTNVLYGKVDSSRLAVAGHSMGGGGSLAAARDYPSLKASVPLAPWHTTKSFSTVRVPTLIVGADGDTVASVTSHSIPFYTSIPSSTPKGYLELNNEDHFFPQDSGEYGLVGKYMISWFKRFVDSDTRYSPFLCGAPHQTQIANTLRVSDSRTNCPY [DP038] | 56.2 | 54 | 6 | 55 | 59 | 54 | < 3 | < 3 | < 3 | < 3 |  |  |  |  |  |  |  |  |  |  |
| QYQKGPDPTVSALERTGSFATRTTTVSRTSASGFGGGTIYYPTASGSYGAIAISPGFTAYQSSISWMGTRLASHGFVVITIDTITTSDQPDSRGRQLKAALDKVVSLSRSSSSPIYNKVDTTRLAVAGHSMGGGGTLAAARDYPSLKAAVPLAPWHTTKSWSRVTVPTLIIGGSTDTIASVGLHSIPFYTSLPSSTNKAYMELSGEGHFFPQTSSNYPLVGRYMISWFKRFVDGDSRYSPFLCGAQHQADLGLFSDISDYRENCPY [ESM169] | 61.3 | 219 | 15 ± 2.8 | 32.5 ± 0.71 | 57 ± 11 |  | 9 | 24.5 ± 2.1 | 29 ± 1.4 |  | < 3 | 6 ± 1.4 | 10.5 ± 0.71 | 18.5 ± 0.71 | < 3 | < 3 | 6.5 ± 0.71 | 6 ± 1.4 | < 3 | < 3 |
| RPAAPADSPYQRGPDPTVSSVAAQRGTFATAELTVPPGNGFNGGKIYYPTDTSQGTWAAVAAVPGYTAKWAAEGAWMGPWLASFGFVVIGIDTNSPNDYDTARGTQLLAALDYLTQRSPVRDRVDPGRLGVIGHSMGGGGAINAAERRPSLKAALPLAPFSPSQNLSTLRVPTMIMGARDDGTVTPSYLNGLYGGMPATTPSAYIELTSGGHGFPTWGNSNVTRRTIPWLKIFLDEDTRYTQFLCPSLPDRTGISRSQVTCGSVPGDGTTPPPATGRQVVGAASGRCLDVPGSSQANGTQLQLWDCLDQAGQKWARTDAGELRVLGGKCLDAEASGTAPGTRAVVWDCHGGTNQRWNVTPDGTITSAQSGLCLDAYNAGTANGTRTVLWTCNGGSNQRWTWR [TEP102] | 60.4 | 252 | 13 ± 2.8 | 25.5 ± 0.71 | 26 ± 1.4 |  | < 3 | < 3 | < 3 |  | < 3 | < 3 | < 3 | < 3 | < 3 | < 3 | < 3 | < 3 | 5.5 ± 0.71 | < 3 |
| RPASAQDNPYERGPAPTVSSVAAQRGTFATAELTVPPGNGFNGGKIYYPTDTSLGTWGAVAAVPGYTAKWAAEGAWMGPWLASFGFVVIGIDTNSPNDYDTARGTQLLAALDYLTQKSAVRDRVDPNRLGVIGHSMGGGGAISAAVRRPSLKAALPLAPFSPSQNLSTLRVPTVIMGARDDGTVTPSYLDGLYGGMPAGTQSAFIELSSGGHGFPTWGNSNVTRRMIPWLKIFLDNDTRYTQFLCPSLADTSGVSRSKLKCPYVPPGGTTPPPPSGGPIVGAASGRCLEVPNSSQTNGTQVQLWDCLDRAGQKWTRTAAGELRVYGTKCLDAEASGTSPGTRVVIWDCHGGQNQQWNVNSNGTITSARSGLCLDAYNAGTGNGTQGVLWNCNGGANQRWALG [TEP024] | 61 | 368 | 4.5 ± 0.71 | 11.5 ± 2.1 | 14.5 ± 0.71 |  | < 3 | < 3 | < 3 |  | < 3 | < 3 | < 3 | < 3 | < 3 | < 3 | < 3 | < 3 | < 3 | < 3 |
| RPASAQDNPYERGPDPTVSSVAAQRGTFATAEVTVPPGNGFNGGKIYYPTDTSKGTWGAVAAVPGYTAKWAAEGAWMGPWLASFGFVVIGIDTNSPNDYDTARGTQLLAALDYLTQKSPVRDRVDPNRLGVIGHSMGGGGAISAAERRPSLKAALPLAPFSPSQNLSSLRVPTMIMGARDDGTVTPSYLNGLYAGMPAATPSAYIELTSGGHGFPTWGNSNVTRRTIPWLKIFLDNDTRYTQLLCPSPADRTGVSRSQVKCAYVPGGGTTPPPPSSGQIVGAASARCLDVPNSSQTNGTQLQLWDCLDQTSQKWARTDAGELRVYGNKCLDAEASGTSAGTRAIIWDCHGGQNQRWNVNANGTITSARSGLCLDANNAGTANGTQAILWTCNGGSNQRWTLR [TEP097] | 64.6 | 270 | 13 ± 1.4 | 31 ± 7.1 | 30.5 ± 2.1 |  | 4.5 ± 0.71 | 4.5 ± 0.71 | 2 ± 2.8 |  | < 3 | < 3 | < 3 | < 3 | < 3 | < 3 | < 3 | < 3 | 8 | < 3 |
| SAQVTRQAAGSYARGPAPTLAGIRAALGPFAYSTVTVTAAQAGGAFGGGTIYYPDDTSQGTFGGVAAVPGYQSAEKAVAWLGPRLASQGFVVITIATNGLTDQPTARGKQLLGALDYLTAQSPAAVRQRLDPNRLAVTGHSMGGGGTLYAAWTRPSLKAAVPLAPWHTIKNWSGITVPTLVQGGTQDTTAQVGTFAEPIYQSLTGARERAYAEIADAAHGTFVRENPLIGALEVAWLKRFVDDDGRYEQFLCPAPADSELTEYRDSCPSS [DP009] | 46.9 | 165 | 4 | 5 | 6 | 10 | < 3 | < 3 | < 3 | < 3 |  |  |  |  |  |  |  |  |  |  |
| SNPAPDTGSGDGSSSQYQIGPDPTVSFLEASSGPFSVRTSNVSSLVSGFGGGTIHYPTGVNRPMAAIVVIPGFVSAESSIDWWGPKLASYGFVVMTIGTNSGFDQPPSRARQINNALDYLVAQNTNSRSPVNGMIDTNRLGAMGWSMGGGGTLRVAEEGRIKAAIPLAPWDTTSFRSNRTPTLIFACGSDSIAPVRTHASPFYNQIPTSTPKIFIEINRGNHYCANGGNSNNATLGRLGVAWMKRFLDEDRRYSQFLCGPRHTSDRNISESRDTCNF [ESM186] | 53.8 | 43 | < 3 | 3 | 13 |  |  |  |  |  |  |  |  |  |  |  |  |  | < 3 |  |
| SPSPGTPGGDNPYQRGPDPTVASVAAQYGPFATAQITVPPGNGFNGGFIYYPTDTSHTYGAVAIVPGYTALFADEEAWMGPRLASFGFVVIGVETNSRTDYDTARGTQLLAALDYLTNSSAVRDRVDRNRLSVIGHSMGGGGSLYAATQRPSLKAAIGLAPFKPSGNLASDTVPTMIIGGINDTTVTPSYLDGLYPTLPAATPGAYLQLANADHLYFTRPNDIELRSQIEWLKIFVDNDTRYTPFLCPSVKDTTGIVRSSVKCSTVPGGGSTPSSSRILGTQSGRCVDVPGATHNNGTRVQLYDCNGQANQQWTYTSSKQLTVYGTVCLDAAGSGNGSAVQIYSCNGQANQQWNVNANGTITGVQSGRCLDVWGTGNGQQIQIYDCNGQANQKFSLN [ESM136] | 55.6 | 61.4 | 18 | 13 | < 3 |  | < 3 | < 3 | < 3 |  |  |  |  |  |  |  |  |  | 5 | < 3 |
| SSCDIMGDVNEDSEVDIVDALLIAQAYVGLNPTIEYHPCADVNCSGSVDIVDALLIAQKYVGLISEFSCQNTPEPTIEPTSAPVLNIACGSSSALGIFQEDQYYSGGSTHNNSNTIDVSRITVNTPPTGLFNNERYGEMSYTIPDLSAGDTYTVTLYFAETYLTSPGSRLFNVSINSTEVLTNFDIYAAAGGQNNGISQSFITTANTSGRIVIDFTAVTENPKINGISIVTGIGPTNIPTPEPTPTPENSGFQRGPDPSLESISANRGTFATAELTFPAGNGFGGGFIYYPTDTSLGTWAAVAICPGGSAKFANEETWMGHWLASFGFVVIGMETNNTYDYPESRGTQLLAALDYLTQKSAVKDRVDPDRLMVMGHSMGGGGAFHAAMARSSLKTMVALAPWFNSSLTSPSMTNLHMPAMIISARNDTVVTPASCSAIYDKIPTTTQRAWVELAADDHLGFTKSNPTEMRVLIPWMKIFLDNDERYVQFLCPIANSSNISVYKNSCPFVP [TEP039] | 50.8 | 34.3 | < 3 | < 3 | < 3 |  |  |  |  |  |  |  |  |  |  |  |  |  | < 3 |  |
